Data taken from the supplement of paper PMC9233669.
Variants at the floor of the assay were thinned out.

Legend:
[1] = tested on: biotinyl-Trp-oxazolone; experiment: self-aminoacylation, catalytic enhancement (BWO) (fold over background); higher = more active; k-Seq, kA / k0A0; sequences stand for … in GGGAAUGGAUCCACAUCUACGAAUUC…UUCACUGCAGACUUGACGAAGCUG
Outline: (§1)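 Mutagenized RNA pools with a 21-nt variable region (0.43 μM) were reacted with each biotinyl-aminoacyl-oxazolone at 2–1250 μM for 90 minutes at room temperature, in 50 μL HEPES/NaCl/KCl/MgCl2/CaCl2 buffer containing 5% acetonitrile at pH 6.9–7.0. RNA captured on streptavidin was quantified by triplicate qPCR and by Illumina sequencing. The fraction reacted for each sequence was fit to a pseudo-first-order model with bootstrapping, and catalytic enhancement is the median kA divided by the uncatalyzed rate, taken as the low-activity peak of a bimodal Gaussian fit.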

[2] = tested on: biotinyl-Val-oxazolone; experiment: self-aminoacylation, catalytic enhancement (BVO) (fold over background); higher = more active; k-Seq, kA / k0A0; sequences stand for … in GGGAAUGGAUCCACAUCUACGAAUUC…UUCACUGCAGACUUGACGAAGCUG
Outline: as §1

[3] = tested on: biotinyl-Leu-oxazolone; experiment: self-aminoacylation, catalytic enhancement (BLO) (fold over background); higher = more active; k-Seq, kA / k0A0; sequences stand for … in GGGAAUGGAUCCACAUCUACGAAUUC…UUCACUGCAGACUUGACGAAGCUG
Outline: as §1

[4] = tested on: biotinyl-Met-oxazolone; experiment: self-aminoacylation, catalytic enhancement (BMO) (fold over background); higher = more active; k-Seq, kA / k0A0; sequences stand for … in GGGAAUGGAUCCACAUCUACGAAUUC…UUCACUGCAGACUUGACGAAGCUG
Outline: as §1

[5] = tested on: biotinyl-Phe-oxazolone; experiment: self-aminoacylation, catalytic enhancement (BFO) (fold over background); higher = more active; k-Seq, kA / k0A0; sequences stand for … in GGGAAUGGAUCCACAUCUACGAAUUC…UUCACUGCAGACUUGACGAAGCUG
Outline: as §1

[6] = tested on: biotinyl-Ile-oxazolone; experiment: self-aminoacylation, catalytic enhancement (BIO) (fold over background); higher = more active; k-Seq, kA / k0A0; sequences stand for … in GGGAAUGGAUCCACAUCUACGAAUUC…UUCACUGCAGACUUGACGAAGCUG
Outline: as §1

Sequence | self-aminoacylation [1] | self-aminoacylation [2] | self-aminoacylation [3] | self-aminoacylation [4] | self-aminoacylation [5] | self-aminoacylation [6]
CUACUUCAAACAAGCAGUCUG [Fam1A.1 aminoacylation ribozyme variant] | 0.577 | 0.775 | 0.794 | 0.751 | 1.06 | 0.882
CUACUUCAAACAAGCGGUCUG [Fam1A.1 aminoacylation ribozyme variant] | 0.693 | 0.871 | 0.825 | 0.822 | 0.819 | 0.933
CUACUUCAAACAAUAGUUCUG [Fam1A.1 aminoacylation ribozyme variant] | 0.325 | 0.511 | 0.532 | 0.53 | 0.553 | 0.624
CUACUUCAAACAAUCAAUCUG [Fam1A.1 aminoacylation ribozyme variant] | 0.669 | 0.767 | 0.602 | 0.683 | 1.73 | 0.794
CUACUUCAAACAAUCAGUCUA [Fam1A.1 aminoacylation ribozyme variant] | 5.04 | 0.9 | 0.776 | 0.841 | 15.7 | 0.871
CUACUUCAAACAAUCAGUGUG [Fam1A.1 aminoacylation ribozyme variant] | 0.975 | 0.972 | 0.745 | 0.936 | 2.23 | 0.867
CUACUUCAAACAAUCAGUUUG [Fam1A.1 aminoacylation ribozyme variant] | 6.56 | 0.73 | 0.861 | 0.779 | 15.7 | 0.803
CUACUUCAAACAAUCCCUCUG [Fam1A.1 aminoacylation ribozyme variant] | 0.44 | 0.525 | 0.558 | 0.68 | 0.842 | 0.74
CUACUUCAAACAAUCCGUAUG [Fam1A.1 aminoacylation ribozyme variant] | 0.715 | 0.81 | 0.769 | 0.65 | 0.759 | 0.723
CUACUUCAAACAAUCCGUCUG [Fam1A.1 aminoacylation ribozyme variant] | 1.26 | 0.806 | 0.661 | 0.673 | 1.92 | 0.788
CUACUUCAAACAAUCCGUUUG [Fam1A.1 aminoacylation ribozyme variant] | 0.87 | 0.77 | 0.674 | 0.594 | 0.704 | 0.694
CUACUUCAAACAAUCGAUCUC [Fam1A.1 aminoacylation ribozyme variant] | 0.881 | 0.799 | 0.5 | 0.322 | 2.76 | 0.502
CUACUUCAAACAAUCGGUACG [Fam1A.1 aminoacylation ribozyme variant] | 0.839 | 0.577 | 0.425 | 0.396 | 2.05 | 0.461
CUACUUCAAACAAUCGGUAUA [Fam1A.1 aminoacylation ribozyme variant] | 0.725 | 0.688 | 0.661 | 0.607 | 1.24 | 0.772
CUACUUCAAACAAUCGGUAUU [Fam1A.1 aminoacylation ribozyme variant] | 0.759 | 0.828 | 0.74 | 0.852 | 1.15 | 0.854
CUACUUCAAACAAUCGGUUAG [Fam1A.1 aminoacylation ribozyme variant] | 1.46 | 0.614 | 0.493 | 0.591 | 2.89 | 0.706
CUACUUCAAACAAUCGGUUCG [Fam1A.1 aminoacylation ribozyme variant] | 0.98 | 0.767 | 0.63 | 0.615 | 2.97 | 0.687
CUACUUCAAACAAUCGGUUUG [Fam1A.1 aminoacylation ribozyme variant] | 23.9 | 1.1 | 1.54 | 1.08 | 43.4 | 1.07
CUACUUCAAACAAUCUGUAUG [Fam1A.1 aminoacylation ribozyme variant] | 0.471 | 0.73 | 0.607 | 0.647 | 0.672 | 0.642
CUACUUCAAACAAUGGGUGUG [Fam1A.1 aminoacylation ribozyme variant] | 0.947 | 1.08 | 1.34 | 1.32 | 0.967 | 1.29
CUACUUCAAACAAUUCGUCUG [Fam1A.1 aminoacylation ribozyme variant] | 0.602 | 0.859 | 0.628 | 0.722 | 0.738 | 0.827
CUACUUCAAACACUCGCUCUG [Fam1A.1 aminoacylation ribozyme variant] | 0.468 | 0.818 | 0.708 | 1.06 | 1.16 | 0.924
CUACUUCAAACACUCGGUCUU [Fam1A.1 aminoacylation ribozyme variant] | 1.18 | 1.74 | 1.49 | 1.81 | 1.56 | 1.71
CUACUUCAAACAGUCGGCCUG [Fam1A.1 aminoacylation ribozyme variant] | 1.39 | 1.71 | 1.78 | 1.77 | 2.1 | 1.63
CUACUUCAAACAGUCGGUCUA [Fam1A.1 aminoacylation ribozyme variant] | 0.576 | 0.893 | 0.817 | 0.856 | 0.734 | 0.938
CUACUUCAAACAGUCGGUCUC [Fam1A.1 aminoacylation ribozyme variant] | 0.456 | 0.8 | 1.02 | 0.765 | 0.732 | 0.903

Sequence | self-aminoacylation [1] | self-aminoacylation [2] | self-aminoacylation [3] | self-aminoacylation [4] | self-aminoacylation [5] | self-aminoacylation [6]
CUACUUCAAACAGUGGGUCUG [Fam1A.1 aminoacylation ribozyme variant] | 0.989 | 0.823 | 0.935 | 0.764 | 0.834 | 0.995
CUACUUCAAACAUGCGGUCUG [Fam1A.1 aminoacylation ribozyme variant] | 0.769 | 1.34 | 1.61 | 1.39 | 3.21 | 1.27
CUACUUCAAACAUUCGCUCUG [Fam1A.1 aminoacylation ribozyme variant] | 0.81 | 0.985 | 1.24 | 1.12 | 3.16 | 1.07
CUACUUCAAACAUUCGGUCCG [Fam1A.1 aminoacylation ribozyme variant] | 1.52 | 0.884 | 0.959 | 0.978 | 0.323 | 0.823
CUACUUCAAACCAUCAGUCUG [Fam1A.1 aminoacylation ribozyme variant] | 0.593 | 0.768 | 0.762 | 0.695 | 1.08 | 0.847
CUACUUCAAACCAUCGGUCUG [Fam1A.1 aminoacylation ribozyme variant] | 0.673 | 0.833 | 0.661 | 0.702 | 0.956 | 0.794
CUACUUCAAACCAUGGGUCUG [Fam1A.1 aminoacylation ribozyme variant] | 0.564 | 0.776 | 0.827 | 0.765 | 0.455 | 0.966
CUACUUCAAACCAUUGGUCUG [Fam1A.1 aminoacylation ribozyme variant] | 0.564 | 0.891 | 0.782 | 0.726 | 1.03 | 0.883
CUACUUCAAACGAUCGGUAUG [Fam1A.1 aminoacylation ribozyme variant] | 0.727 | 0.675 | 0.591 | 0.585 | 0.588 | 0.544
CUACUUCAAACGAUCGGUCAG [Fam1A.1 aminoacylation ribozyme variant] | 0.625 | 0.535 | 0.566 | 0.36 | 0.808 | 0.621
CUACUUCAAACGAUCGUUCUG [Fam1A.1 aminoacylation ribozyme variant] | 0.447 | 0.632 | 0.423 | 0.442 | 0.639 | 0.493
CUACUUCAAACUAACGGUCUG [Fam1A.1 aminoacylation ribozyme variant] | 0.665 | 0.75 | 0.796 | 0.787 | 0.924 | 0.778
CUACUUCAAACUAUCAGUCUG [Fam1A.1 aminoacylation ribozyme variant] | 0.813 | 1.05 | 0.801 | 0.975 | 1.25 | 1.06
CUACUUCAAACUAUCCGUCUG [Fam1A.1 aminoacylation ribozyme variant] | 0.852 | 1.08 | 0.936 | 0.889 | 0.844 | 0.955
CUACUUCAAACUAUCGGUCGG [Fam1A.1 aminoacylation ribozyme variant] | 1.05 | 0.893 | 1.01 | 1.02 | 0.997 | 1.05
CUACUUCAAACUAUCGGUCUC [Fam1A.1 aminoacylation ribozyme variant] | 0.598 | 0.885 | 0.759 | 0.747 | 1.19 | 0.833
CUACUUCAAACUAUCUGUCUG [Fam1A.1 aminoacylation ribozyme variant] | 0.738 | 0.867 | 0.767 | 0.846 | 1.09 | 0.869
CUACUUCAAAGAAUCGGUCAG [Fam1A.1 aminoacylation ribozyme variant] | 0.818 | 0.658 | 0.601 | 0.574 | 1.48 | 0.652
CUACUUCAAAGAAUCGGUCCG [Fam1A.1 aminoacylation ribozyme variant] | 0.384 | 0.607 | 0.866 | 0.638 | 0.351 | 0.718
CUACUUCAAAGAAUCGGUCUG [Fam1A.1 aminoacylation ribozyme variant] | 4.78 | 0.76 | 0.883 | 0.759 | 6.52 | 0.777
CUACUUCAAAGACUCGGUCUG [Fam1A.1 aminoacylation ribozyme variant] | 1.35 | 1.2 | 1.01 | 1.16 | 3.52 | 1.12
CUACUUCAAAGAGUCGGUCUG [Fam1A.1 aminoacylation ribozyme variant] | 0.754 | 0.835 | 0.849 | 1.13 | 0.46 | 0.695
CUACUUCAAAUAAUCGGUCGG [Fam1A.1 aminoacylation ribozyme variant] | 5.93 | 0.832 | 1.13 | 0.909 | 6.6 | 1.07
CUACUUCAAAUAAUCGGUCUA [Fam1A.1 aminoacylation ribozyme variant] | 3.51 | 0.78 | 0.727 | 0.659 | 7.72 | 0.795
CUACUUCAAAUUAUCGGUCUG [Fam1A.1 aminoacylation ribozyme variant] | 0.849 | 1.11 | 0.945 | 1.01 | 0.806 | 1.12
